Test results reported in IntAct's records for PubMed 31515488.

B1: Protein FAM168A (Homo sapiens), Q92567 (parent)
chain: MNPVYSPVQPGAPYGNPKNMAYTGYPTAYPAAAPAYNPSLYPTNSPSYAPEFQFLHSAYATLLMKQAWPQNSSSCGTEGTFHLPVDTGTENRTYQASSAAFRYTAGTPYKVPPTQSNTAPPPYSPSPNPYQTAMYPIRSAYPQQNLYAQGAYYTQPVYAAQPHVIHHTTVVQPNSIPSAIYPAPVAAPRTNGVAMGMVAGTTMAMSAGTLLTTPQHTAIGAHPVSMPTYRAQGTPAYSYVPPHW
B2: Protein DBF4 homolog B (Homo sapiens), Q8NFT6 (parent)
chain: MSEPGKGDDCLELESSMAESRLRAPDLGVSRCLGKCQKNSPGARKHPFSGKSFYLDLPAGKNLQFLTGAIQQLGGVIEGFLSKEVSYIVSSRREVKAESSGKSHRGCPSPSPSEVRVETSAMVDPKGSHPRPSRKPVDSVPLSRGKELLQKAIRNQGSISGGGSGGSSSLLTNARSWGVRILHVDEMMMHVQQLSLASLCVKKQQPKKPEGTCPAAESRTRKVARLKAPFLKIEDESRKFRPFHHQFKSFPEISFLGPKDASPFEAPTTLGSMHHTRESKDGEPSPRSAAHTMPRRKKGYCECCQEAFEELHVHLQSAQHRSFALEAHLYAEVDRIIAQLSHSFADIPFQAGLPRWSGSPASDCDPLCPETLHPHQPSHPRAASPRIRKEDSCQASVTQGRAAGQQRWTESLDGVMGPPASHTCVSATTLLPALPKGSREQGCLCPCPASFTQSHLVTSLALLPGEWSPAEDMPLHPSQENSFAPADIPVKGPLLFPEARPWLMSARCWVRPFPFVTWGCLIPHDTTPLHEEVSPCPCLRLGYLYLLLTQSLWCRVRVPSLSTAGPIPRTSHPCTLAFPSYLNDHDLGHLCQAKPQGWNTPQPFLHCGFLAVDSG
partner: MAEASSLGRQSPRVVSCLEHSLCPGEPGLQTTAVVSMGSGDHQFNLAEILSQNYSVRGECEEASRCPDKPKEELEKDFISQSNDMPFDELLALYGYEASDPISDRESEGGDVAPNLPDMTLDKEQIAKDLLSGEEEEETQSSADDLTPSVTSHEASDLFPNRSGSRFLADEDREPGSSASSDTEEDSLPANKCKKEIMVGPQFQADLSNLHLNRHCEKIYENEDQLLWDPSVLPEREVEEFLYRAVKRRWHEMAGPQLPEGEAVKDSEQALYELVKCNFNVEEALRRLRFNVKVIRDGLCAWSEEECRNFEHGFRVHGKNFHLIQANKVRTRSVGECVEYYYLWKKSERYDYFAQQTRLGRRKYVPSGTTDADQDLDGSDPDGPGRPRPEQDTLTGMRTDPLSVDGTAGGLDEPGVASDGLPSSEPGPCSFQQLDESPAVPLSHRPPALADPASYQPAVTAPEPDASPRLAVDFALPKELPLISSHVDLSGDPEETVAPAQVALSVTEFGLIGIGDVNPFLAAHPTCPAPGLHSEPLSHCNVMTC
B3: Protein SSX3 (Homo sapiens), Q99909 (parent)
chain: MNGDDTFARRPTVGAQIPEKIQKAFDDIAKYFSKEEWEKMKVSEKIVYVYMKRKYEAMTKLGFKAILPSFMRNKRVTDFQGNDFDNDPNRGNQVQRPQMTFGRLQGIFPKIMPKKPAEEGNVSKEVPEASGPQNDGKQLCPPGKPTTSEKINMISGPKRGEHAWTHRLRERKQLVIYEEISDPEEDDE
partner: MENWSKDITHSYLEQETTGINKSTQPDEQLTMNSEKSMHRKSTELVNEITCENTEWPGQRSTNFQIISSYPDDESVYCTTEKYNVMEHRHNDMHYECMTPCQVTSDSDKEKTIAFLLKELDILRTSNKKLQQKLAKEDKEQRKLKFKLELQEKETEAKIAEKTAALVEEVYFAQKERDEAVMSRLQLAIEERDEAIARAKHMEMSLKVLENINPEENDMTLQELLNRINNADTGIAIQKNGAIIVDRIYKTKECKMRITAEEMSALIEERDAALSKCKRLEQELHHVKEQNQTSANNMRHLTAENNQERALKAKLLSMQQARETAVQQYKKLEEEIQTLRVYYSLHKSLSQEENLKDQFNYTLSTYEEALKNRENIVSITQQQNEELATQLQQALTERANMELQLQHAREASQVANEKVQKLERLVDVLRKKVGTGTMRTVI
B4: Carboxy-terminal domain RNA polymerase II polypeptide A small phosphatase 1 (Homo sapiens), Q9GZU7 (parent)
chain: MDSSAVITQISKEEARGPLRGKGDQKSAASQKPRSRGILHSLFCCVCRDDGEALPAHSGAPLLVEENGAIPKQTPVQYLLPEAKAQDSDKICVVIDLDETLVHSSFKPVNNADFIIPVEIDGVVHQVYVLKRPHVDEFLQRMGELFECVLFTASLAKYADPVADLLDKWGAFRARLFRESCVFHRGNYVKDLSRLGRDLRRVLILDNSPASYVFHPDNAVPVASWFDNMSDTELHDLLPFFEQLSRVDDVYSVLRQPRPGS
partner: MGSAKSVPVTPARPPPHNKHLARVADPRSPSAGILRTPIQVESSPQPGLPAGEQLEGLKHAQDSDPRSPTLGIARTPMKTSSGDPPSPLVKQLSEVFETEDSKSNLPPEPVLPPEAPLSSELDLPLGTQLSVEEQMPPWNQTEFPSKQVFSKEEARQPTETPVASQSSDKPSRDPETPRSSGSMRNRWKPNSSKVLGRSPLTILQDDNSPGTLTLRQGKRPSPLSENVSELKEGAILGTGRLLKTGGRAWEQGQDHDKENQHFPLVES
B5: Protein LDOC1 (Homo sapiens), O95751 (parent)
chain: MVDELVLLLHALLMRHRALSIENSQLMEQLRLLVCERASLLRQVRPPSCPVPFPETFNGESSRLPEFIVQTASYMLVNENRFCNDAMKVAFLISLLTGEAEEWVVPYIEMDSPILGDYRAFLDEMKQCFGWDDDEDDDDEEEEDDY
partner: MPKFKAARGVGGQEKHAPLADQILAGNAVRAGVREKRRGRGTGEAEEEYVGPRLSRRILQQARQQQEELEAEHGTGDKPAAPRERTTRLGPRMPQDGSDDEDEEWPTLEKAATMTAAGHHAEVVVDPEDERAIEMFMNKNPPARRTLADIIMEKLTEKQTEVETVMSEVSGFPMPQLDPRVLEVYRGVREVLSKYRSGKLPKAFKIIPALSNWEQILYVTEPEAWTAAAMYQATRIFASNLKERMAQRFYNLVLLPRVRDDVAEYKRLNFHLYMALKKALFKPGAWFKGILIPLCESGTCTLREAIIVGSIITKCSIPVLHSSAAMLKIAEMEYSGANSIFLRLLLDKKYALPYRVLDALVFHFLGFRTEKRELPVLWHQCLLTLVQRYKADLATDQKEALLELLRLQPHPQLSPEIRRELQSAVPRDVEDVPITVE
B6: Protein LDOC1 (Homo sapiens), O95751 (parent)
chain: B5 chain
partner: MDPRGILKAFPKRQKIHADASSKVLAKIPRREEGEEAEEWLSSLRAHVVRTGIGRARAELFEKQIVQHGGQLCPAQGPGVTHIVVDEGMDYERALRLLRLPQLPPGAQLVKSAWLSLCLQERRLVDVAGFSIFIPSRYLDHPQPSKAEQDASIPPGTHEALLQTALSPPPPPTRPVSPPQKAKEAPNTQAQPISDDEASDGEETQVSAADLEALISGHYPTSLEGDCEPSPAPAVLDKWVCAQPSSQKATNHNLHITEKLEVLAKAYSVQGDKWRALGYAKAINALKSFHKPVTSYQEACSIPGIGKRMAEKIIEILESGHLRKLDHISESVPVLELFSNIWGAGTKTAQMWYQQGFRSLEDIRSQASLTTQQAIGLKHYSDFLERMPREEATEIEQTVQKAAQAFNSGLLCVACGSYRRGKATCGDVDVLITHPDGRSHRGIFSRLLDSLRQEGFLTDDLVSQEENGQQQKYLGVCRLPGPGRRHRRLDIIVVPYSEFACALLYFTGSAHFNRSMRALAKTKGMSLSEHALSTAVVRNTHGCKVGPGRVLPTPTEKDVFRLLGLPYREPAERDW
B7: Microtubule-associated tumor suppressor candidate 2 (Homo sapiens), Q5JR59-3 (parent)
chain: MGHCCCKPYNCLQCLDKTNESALVKEKELSIELANIRDEVAFHTAKCEKLQKEKEELERRFEDEVKRLGWQQQAELQELEERLQLQFEAEMARLQEEHGDQLLSIRCQHQEQVEDLTASHDAALLEMENNHTVAITILQDDHDHKVQELMSTHELEKKELEENFEKLRLSLQDQVDTLTFQSQSLRDRARRFEEALRKNTEEQLEIALAPYQHLEEDMKSLKQVLEMKNQQIHEQEKKILELEKLAEKNIILEEKIQVLQQQNEDLKARIDQNTVVTRQLSEENANLQEYVEKETQEKKRLSRTNEELLWKLQTGDPTSPIKLSPTSPVYRGSSSGPSSPARVSTTPR
partner: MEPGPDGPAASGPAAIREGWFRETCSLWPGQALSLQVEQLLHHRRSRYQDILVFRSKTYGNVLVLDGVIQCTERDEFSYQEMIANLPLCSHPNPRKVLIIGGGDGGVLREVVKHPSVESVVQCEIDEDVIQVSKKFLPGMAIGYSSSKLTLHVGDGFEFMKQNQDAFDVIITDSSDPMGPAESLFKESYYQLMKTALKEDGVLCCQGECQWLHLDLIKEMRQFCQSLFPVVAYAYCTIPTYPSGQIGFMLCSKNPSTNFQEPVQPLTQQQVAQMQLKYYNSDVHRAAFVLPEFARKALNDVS

Variants of: B1
Details: with ru1c_human SNRPC

Row | Variant | effect of a mutation on the interaction
1 | MNPVYSPVQPGAPYGNPKNMAYTGYPTAYPAAAPAYNPSLYPTNSPSYAPEFQFLHSAYATLLMKQAWPQNSSSCGTEGTFHLPVDTGTENRTYQASSAAFRYTAGTPYKVPPTQSNTAPPRYSPSPNPYQTAMYPIRSAYPQQNLYAQGAYYTQPVYAAQPHVIHHTTVVQPNSIPSAIYPAPVAAPRTNGVAMGMVAGTTMAMSAGTLLTTPQHTAIGAHPVSMPTYRAQGTPAYSYVPPHW [P122R] | with no effect

Variants of: B1
Details: with ubs3b_human UBASH3B

Row | Variant | effect of a mutation on the interaction
2 | MNPVYSPVQPGAPYGNPKNMAYTGYPTAYPAAAPAYNPSLYPTNSPSYAPEFQFLHSAYATLLMKQAWPQNSSSCGTEGTFHLPVDTGTENRTYQASSAAFRYTAGTPYKVPPTQSNTAPPRYSPSPNPYQTAMYPIRSAYPQQNLYAQGAYYTQPVYAAQPHVIHHTTVVQPNSIPSAIYPAPVAAPRTNGVAMGMVAGTTMAMSAGTLLTTPQHTAIGAHPVSMPTYRAQGTPAYSYVPPHW [P122R] | disrupting interaction strength

Variants of: B1
Details: with ub2v1_human UBE2V1, Q13404
ub2v1_human UBE2V1, Q13404, sequence (Q13404 whole entry): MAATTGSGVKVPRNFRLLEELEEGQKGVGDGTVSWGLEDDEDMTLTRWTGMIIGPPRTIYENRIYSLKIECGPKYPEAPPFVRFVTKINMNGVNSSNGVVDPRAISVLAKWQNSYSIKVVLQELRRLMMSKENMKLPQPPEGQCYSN

Row | Variant | effect of a mutation on the interaction
3 | MNPVYSPVQPGAPYGNPKNMAYTGYPTAYPAAAPAYNPSLYPTNSPSYAPEFQFLHSAYATLLMKQAWPQNSSSCGTEGTFHLPVDTGTENRTYQASSAAFRYTAGTPYKVPPTQSNTAPPRYSPSPNPYQTAMYPIRSAYPQQNLYAQGAYYTQPVYAAQPHVIHHTTVVQPNSIPSAIYPAPVAAPRTNGVAMGMVAGTTMAMSAGTLLTTPQHTAIGAHPVSMPTYRAQGTPAYSYVPPHW [P122R] | disrupting interaction strength

Variants of: B2
Details: with mier2_human MIER2, Q8N344

Row | Variant | effect of a mutation on the interaction
4 | L199S | with no effect

Variants of: B3
Details: with mipo1_human MIPOL1, Q8TD10

Row | Variant | effect of a mutation on the interaction
5 | MNGDDTFARRPTVGAQIPEKIQKAFDDIAKYFSKEEWEKMKVSEKIVYVYMKRKYEAMTKLGFKAILPSFMRNKRVTDFQGNDFDNDPNRGNQVQRPQMTFGRLQGIFPKIMPKKPAEEGNVSKEVPEASGPQNDGKQLCPPGKPTTSEKINMISGPKSGEHAWTHRLRERKQLVIYEEISDPEEDDE [R159S] | with no effect
6 | MNGDDTFARRPTVGAQIPEKIQKAFDDIAKYFSKEEWEKMKVSEKIVYVYMKRKYEAMTKLGFKAILPSFMRNKRVADFQGNDFDNDPNRGNQVQRPQMTFGRLQGIFPKIMPKKPAEEGNVSKEVPEASGPQNDGKQLCPPGKPTTSEKINMISGPKRGEHAWTHRLRERKQLVIYEEISDPEEDDE [T77A] | with no effect

Variants of: B4
Details: with cdca3_human CDCA3, Q99618

Row | Variant | effect of a mutation on the interaction
7 | MDSSAVITQISKEEARGPLRGKGDQKSAASQKPRSRGILHSLFCCVCRDDGEALPTHSGAPLLVEENGAIPKQTPVQYLLPEAKAQDSDKICVVIDLDETLVHSSFKPVNNADFIIPVEIDGVVHQVYVLKRPHVDEFLQRMGELFECVLFTASLAKYADPVADLLDKWGAFRARLFRESCVFHRGNYVKDLSRLGRDLRRVLILDNSPASYVFHPDNAVPVASWFDNMSDTELHDLLPFFEQLSRVDDVYSVLRQPRPGS [A56T] | with no effect

Variants of: B5
Details: with byst_human BYSL

Row | Variant | effect of a mutation on the interaction
8 | L12H | disrupting interaction strength

Variants of: B6
Details: with dpoll_human POLL

Row | Variant | effect of a mutation on the interaction
9 | L12H | disrupting interaction strength

Variants of: B7
Details: with spee_human SRM

Row | Variant | effect of a mutation on the interaction
10 | MGHCCCKPYNCLQCLDKTNESALVKEKELSIELANIRDEVAFHTAKCEKLQKEKEELERRFEDEVKRLGWQQQAELQELEERLQLQFEVEMARLQEEHGDQLLSIRCQHQEQVEDLTASHDAALLEMENNHTVAITILQDDHDHKVQELMSTHELEKKELEENFEKLRLSLQDQVDTLTFQSQSLRDRARRFEEALRKNTEEQLEIALAPYQHLEEDMKSLKQVLEMKNQQIHEQEKKILELEKLAEKNIILEEKIQVLQQQNEDLKARIDQNTVVTRQLSEENANLQEYVEKETQEKKRLSRTNEELLWKLQTGDPTSPIKLSPTSPVYRGSSSGPSSPARVSTTPR [A89V] | with no effect
